According to publication PMC6180065, “Deciphering molecular details in the assembly of alpha-type carboxysome” (Scientific Reports, 2018):

Biological target: T1, MBP tagged CbbL(1–136) (Halothiobacillus neapolitan (ATCC 23641), UniProt O85040 1-136)
T1 construct: Residues 1-136 (N domain) of RuBisCO large subunit CbbL of Halothiobacillus neapolitan (ATCC 23641); The coat of the ELISA; also called CbbL(N)
T1 sequence (looked up): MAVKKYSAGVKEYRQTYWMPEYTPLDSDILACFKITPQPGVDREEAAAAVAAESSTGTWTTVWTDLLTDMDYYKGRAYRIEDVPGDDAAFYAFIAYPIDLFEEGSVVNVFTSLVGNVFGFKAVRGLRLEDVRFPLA
Assay: ELISA; semi-quantitative; MaxiSorp plates coated with MBP-tagged CbbL(1–136) (30 nM in 0.1 M Na2CO3 pH 9.6, 4 °C, 12 h); CsoS1C-6xHis 5 nM to 5 μM in blocking buffer (1 mM CaCl2, 1% BSA in TBS), 1 h at room temperature; detected by 6xHis tag antibody and anti-mouse IgG-HRP; Hill equation fit; apparent Kd
Conditions: both partners purified

B1: CsoS1C-6xHis (natural protein, Halothiobacillus neapolitan (ATCC 23641))
chain: MAAVTGIALGMIETRGLVPAIEAADAMTKAAEVRLVGRQFVGGGYVTVLVRGETGAVNAAVRAGADACERVGDGLVAAHIIARVHSEVENILPKAPEA
notes: Carboxysome shell protein CsoS1C of Halothiobacillus neapolitan (ATCC 23641); printed length 98 a.a; not measured in the assay
**Q.** With B1 as the binder, how does the Kd read?
**A.** 120 ± 4.6 nM
